Measurements reported in PMC12772213.
Where two headings read alike, the source gives them in different places.

Tests used:
[1] = target: Actin filaments (rabbit skeletal muscle actin) (rabbit) (UniProt P68135); experiment: three-bead optical trap; pedestal bead stage feedback; time between single actomyosin interactions at saturating (2 mM) ATP, double-exponential distribution; cHMM held through antibody to the S2Tag; 20 °C
[2] = target: Actin filaments (rabbit skeletal muscle actin) (rabbit) (UniProt P68135)
[3] = target: Actin filaments (rabbit skeletal muscle actin) (rabbit) (UniProt P68135); experiment: three-bead optical trap; unloaded; cHMM held on pedestal beads through antibody to the S2Tag, actin filament suspended between two trapped beads; 1 µM MgATP; 20 °C; 60 mM MOPS, 25 mM KCl, 1 mM DTT, 1 mM MgCl2, 1 mM EGTA; single-molecule events by bead covariance
[4] = target: Actin filaments (rabbit skeletal muscle actin) (rabbit) (UniProt P68135); experiment: three-bead optical trap; unloaded; cHMM held on pedestal beads through antibody to the S2Tag, actin filament suspended between two trapped beads; 2 mM MgATP; 20 °C; 60 mM MOPS, 25 mM KCl, 1 mM DTT, 1 mM MgCl2, 1 mM EGTA; single-molecule events by bead covariance
[5] = target: Actin filaments (rabbit skeletal muscle actin) (rabbit) (UniProt P68135); experiment: three-bead optical trap; isometric feedback (hindering load); detachment rate vs. force fitted to the Bell equation, interactions >10 pN excluded; cHMM held through antibody to the S2Tag; 20 °C
[6] = target: Actin filaments (rabbit skeletal muscle actin) (rabbit) (UniProt P68135); experiment: as above; remark: listed apart in the source
Pyrene-actin (rabbit) = Pyrene-actin (rabbit) (UniProt P68135); experiment: stopped-flow pyrene-actin fluorescence; myosin heads (apyrase-treated) mixed with equimolar pyrene-actin 10 min at RT in KMg25 buffer (60 mM MOPS pH 7, 25 mM KCl, 1 mM EGTA, 1 mM MgCl2, 1 mM DTT), then mixed with ATP; ATP-induced dissociation followed by pyrene fluorescence

Substance | actin reattachment rate in optical trap (fast) [1] | actin reattachment rate in optical trap (slow) [1] | Actin gliding velocity (in vitro gliding assay, cHMM held through S2Tag antibody, rhodamine-phalloidin labeled actin, 32 °C) [2] | k detach (1 μM ATP) [3] | k detach (2 mM ATP) [4] | Bell equation k0 (detachment rate at zero force) [5] | Bell equation k0 (detachment rate at zero force) [6] | maximum rate of ATP-induced dissociation of actomyosin (Pyrene-actin (rabbit))
Human β-cardiac myosin wild type HMM (WT-cHMM) (from UniProt P12883 1-1935; P05977 1-188; P97457 1-169) (complex) | 17 s⁻¹ | 0.83 s⁻¹ | 1.6 µm/s | 6.09 s⁻¹ | 58.5 s⁻¹ | 32.9 s⁻¹ | 32 s⁻¹ | –
Human β-cardiac myosin HMM M493I mutant (M493I-cHMM) (from UniProt P12883 1-1935; P05977 1-188; P97457 1-169) (complex) | 23 s⁻¹ | 1.62 s⁻¹ | 0.46 µm/s | 6.26 s⁻¹ | 12.1 s⁻¹ | 12.9 s⁻¹ | – | 340 s⁻¹
